Experimental data taken from paper PMC9371724 (2022).

B1: …-1 (TCR)
alpha TRAV2 TRAJ40 CDR3: CAVEDRDSGTYKYIF
beta TRBV18 TRBJ2-1 CDR3: CASSPSRGAPEYNEQFF
B2: …-1 (TCR)
alpha TRAV10 TRAJ26 CDR3: CVVSPTGGQNFVF
beta TRBV6-2 TRBJ2-6 CDR3: CASSYWGLGANVLTF
B3: …-1 (TCR)
alpha TRAV8-4 TRAJ9 CDR3: CAVNGGFKTIF
beta TRBV6-1 TRBJ2-1 CDR3: CASRDRNQYNEQFF
B4: TCR CATDGGGIGAGSYQLTF / CATSRGGSPPYEQYF (TCR)
alpha TRAV17 TRAJ28 CDR3: CATDGGGIGAGSYQLTF
beta TRBV15 TRBJ2-7 CDR3: CATSRGGSPPYEQYF
B5: TCR CAANLDNFNKFYF / CATSRGIQPNEKLFF (TCR)
alpha TRAV25 TRAJ21 CDR3: CAANLDNFNKFYF
beta TRBV15 TRBJ1-4 CDR3: CATSRGIQPNEKLFF
B6: TCR512 (TCR)
alpha TRAV13-1 TRAJ23 CDR3: CAAPYNQGGKLIF
beta TRBV19 TRBJ1-5 CDR3: CASSIVRGLYSNQPQHF
B7: TCR CALGPGDNQGGKLIF / CASSLAQAPAGETQYF (TCR)
alpha TRAV9-2 TRAJ23 CDR3: CALGPGDNQGGKLIF
beta TRBV11-1 TRBJ2-5 CDR3: CASSLAQAPAGETQYF
B8: …-1 (TCR)
alpha TRAV38-2/DV8 TRAJ39 CDR3: CAYRSANNAGNMLTF
beta TRBV6-5 TRBJ1-5 CDR3: CASRTSGGNQPQHF
B9: …-1 (TCR)
alpha TRAV19 TRAJ45 CDR3: CALSEDAGGGADGLTF
beta TRBV12-3 TRBJ2-5 CDR3: CASRRHQQETQYF
B10: …-1 (TCR)
alpha TRAV29/DV5 TRAJ48 CDR3: CAAKGGGNEKLTF
beta TRBV12-3 TRBJ1-3 CDR3: CASTPRVLQFSGNTIYF
B11: …-1 (TCR)
alpha TRAV17 TRAJ54 CDR3: CATDAAGAQKLVF
beta TRBV19 TRBJ2-1 CDR3: CASSILAGVYNEQFF
B12: TCR CAVQELARLMF / CASSVEGYSSPLHF (TCR)
alpha TRAV20 TRAJ31 CDR3: CAVQELARLMF
beta TRBV6-1 TRBJ1-6 CDR3: CASSVEGYSSPLHF
B13: …-1 (TCR)
alpha TRAV2 TRAJ20 CDR3: CAVEDKHDYKLSF
beta TRBV9 TRBJ1-2 CDR3: CASSFKEGSNYGYTF
B14: TCR CAVSDRDSGNTPLVF / CASSQGDVNYGYTF (TCR)
alpha TRAV8-6 TRAJ29 CDR3: CAVSDRDSGNTPLVF
beta TRBV4-3 TRBJ1-2 CDR3: CASSQGDVNYGYTF
B15: TCR CATGSYNTDKLIF / CASSPGLAGGTGELFF (TCR)
alpha TRAV17 TRAJ34 CDR3: CATGSYNTDKLIF
beta TRBV4-3 TRBJ2-2 CDR3: CASSPGLAGGTGELFF
B16: …-1 (TCR)
alpha TRAV27 TRAJ26 CDR3: CKYGQNFVF
beta TRBV19 TRBJ2-3 CDR3: CASSRPGLNTDTQYF
B17: TCR CAASMSTNQGGKLIF / CSADRYAYEQYF (TCR)
alpha TRAV13-1 TRAJ23 CDR3: CAASMSTNQGGKLIF
beta TRBV20-1 TRBJ2-7 CDR3: CSADRYAYEQYF
B18: TCR806 (TCR)
alpha TRAV26-1 TRAJ33 CDR3: CIVRGGTNMDSNYQLIW
beta TRBV19 TRBJ1-6 CDR3: CASTGQGNSPLHF
B19: …-1 (TCR)
alpha TRAV5 TRAJ8 CDR3: CAEMDTGFQKLVF
beta TRBV6-5 TRBJ1-1 CDR3: CASSGQGSTEAFF
B20: TCR CATDSYNTDKLIF / CASSQGLGPTNYGYTF (TCR)
alpha TRAV17 TRAJ34 CDR3: CATDSYNTDKLIF
beta TRBV4-3 TRBJ1-2 CDR3: CASSQGLGPTNYGYTF
B21: TCR CAVGATDSWGKFQF / CASSIDATGHSNQPQHF (TCR)
alpha TRAV8-3 TRAJ24 CDR3: CAVGATDSWGKFQF
beta TRBV19 TRBJ1-5 CDR3: CASSIDATGHSNQPQHF
B22: TCR821 (TCR)
alpha TRAV26-1 TRAJ23 CDR3: CIVMLTTNQGGKLIF
beta TRBV19 TRBJ2-4 CDR3: CASSPGLAGGGSIQYF
B23: …-1 (TCR)
alpha TRAV21 TRAJ30 CDR3: CAVGDDKIIF
beta TRBV12-3 TRBJ1-1 CDR3: CASSSRSGLKAFF
B24: …-1 (TCR)
alpha TRAV38-2/DV8 TRAJ39 CDR3: CAYRSFNNAGNMLTF
beta TRBV28 TRBJ1-6 CDR3: CASTETGSNSPLHF
B25: …-1 (TCR)
alpha TRAV9-2 TRAJ8 CDR3: CALSEGSTGFQKLVF
beta TRBV7-8 TRBJ1-3 CDR3: CASSVAGNGNTIYF
B26: …-1 (TCR)
alpha TRAV8-6 TRAJ42 CDR3: CAVMGYGGSQGNLIF
beta TRBV4-3 TRBJ2-1 CDR3: CASSQELGVYNEQFF
B27: TCR CIVRVGTNMDSNYQLIW / CASSKSYNEQFF (TCR)
alpha TRAV26-1 TRAJ33 CDR3: CIVRVGTNMDSNYQLIW
beta TRBV19 TRBJ2-1 CDR3: CASSKSYNEQFF
B28: TCR CATVGYNTDKLIF / CASSQGQAATNEKLFF (TCR)
alpha TRAV17 TRAJ34 CDR3: CATVGYNTDKLIF
beta TRBV4-3 TRBJ1-4 CDR3: CASSQGQAATNEKLFF
B29: TCR CATVAYNTDKLIF / CASSPGRTGGTYYGYTF (TCR)
alpha TRAV17 TRAJ34 CDR3: CATVAYNTDKLIF
beta TRBV4-3 TRBJ1-2 CDR3: CASSPGRTGGTYYGYTF
B30: TCR100 (TCR)
alpha TRAV8-3 TRAJ24 CDR3: CAVVTTDSWGKFQF
beta TRBV19 TRBJ1-5 CDR3: CASSDSPTGHGNQPQHF
B31: TCR CAGSSANQAGTALIF / CSARGGQGAPSPLHF (TCR)
alpha TRAV35 TRAJ15 CDR3: CAGSSANQAGTALIF
beta TRBV20-1 TRBJ1-6 CDR3: CSARGGQGAPSPLHF
B32: …-1 (TCR)
alpha TRAV20 TRAJ52 CDR3: CAVQAPGTSYGKLTF
beta TRBV24-1 TRBJ2-3 CDR3: CATSVGTSGYTQYF
B33: …-1 (TCR)
alpha TRAV26-2 TRAJ41 CDR3: CILRDSNSGYALNF
beta TRBV7-8 TRBJ1-5 CDR3: CASSSGTHRSPQHF
B34: …-1 (TCR)
alpha TRAV9-2 TRAJ4 CDR3: CALPSLSGGYNKLIF
beta TRBV7-8 TRBJ1-3 CDR3: CASSLAGNGNTIYF
B35: …-1 (TCR)
alpha TRAV10 TRAJ41 CDR3: CVVSEGGYALNF
beta TRBV5-1 TRBJ1-5 CDR3: CASSDGTDSNQPQHF
B36: TCR CIVRVLTNQGGKLIF / CSAGSGLGGYNEQFF (TCR)
alpha TRAV26-1 TRAJ23 CDR3: CIVRVLTNQGGKLIF
beta TRBV20-1 TRBJ2-1 CDR3: CSAGSGLGGYNEQFF
B37: TCR CAVSEGRSNQGGKLIF / CASSSQGRENEQYF (TCR)
alpha TRAV8-6 TRAJ23 CDR3: CAVSEGRSNQGGKLIF
beta TRBV19 TRBJ2-7 CDR3: CASSSQGRENEQYF
B38: TCR CALSEAFPPLYNFNKFYF / CASSLFATSGKDTQYF (TCR)
alpha TRAV19 TRAJ21 CDR3: CALSEAFPPLYNFNKFYF
beta TRBV5-6 TRBJ2-3 CDR3: CASSLFATSGKDTQYF
B39: …-1 (TCR)
alpha TRAV21 TRAJ46 CDR3: CAVRPKEGSGDKLTF
beta TRBV2 TRBJ2-2 CDR3: CASSESGRGPGELFF
B40: TCR CILRGGTNQGGKLIF / CSAEGQGAGNTIYF (TCR)
alpha TRAV26-2 TRAJ23 CDR3: CILRGGTNQGGKLIF
beta TRBV20-1 TRBJ1-3 CDR3: CSAEGQGAGNTIYF
B41: …-1 (TCR)
alpha TRAV12-3 TRAJ39 CDR3: CATSYNNAGNMLTF
beta TRBV4-2 TRBJ2-5 CDR3: CASSQGTSGEETQYF
B42: TCR CIVRVGTNQGGKLIF / CASSMGLALETQYF (TCR)
alpha TRAV26-1 TRAJ23 CDR3: CIVRVGTNQGGKLIF
beta TRBV19 TRBJ2-5 CDR3: CASSMGLALETQYF
B43: TCR CVVRGQAGTALIF / CASSGHWNTEAFF (TCR)
alpha TRAV10 TRAJ15 CDR3: CVVRGQAGTALIF
beta TRBV19 TRBJ1-1 CDR3: CASSGHWNTEAFF

Molecular target: T1, HA69 peptide on HLA DQB1*06:02/DQA1*01:02 (DQ0602) (human)
T1 peptide: AMERNAGSGIIISDT
Assay: activation reporter or marker

Question: Does B1 bind?
Answer: Result: no recognition

Question: Does B2 bind?
Answer: Result: no recognition

Question: Does B3 bind?
Answer: Result: no recognition

Question: Does B4 bind?
Answer: Result: recognises

Question: Does B5 bind?
Answer: Result: recognises

Question: Does B6 bind?
Answer: Result: recognises

Question: Does B7 bind?
Answer: Result: recognises

Question: Does B8 bind?
Answer: Result: no recognition

Question: Does B9 bind?
Answer: Result: no recognition

Question: Does B10 bind?
Answer: Result: no recognition

Question: Does B11 bind?
Answer: Result: no recognition

Question: Does B12 bind?
Answer: Result: recognises

Question: Does B13 bind?
Answer: Result: no recognition

Question: Does B14 bind?
Answer: Result: recognises

Question: Does B15 bind?
Answer: Result: recognises

Question: Does B16 bind?
Answer: Result: no recognition

Question: Does B17 bind?
Answer: Result: recognises

Question: Does B18 bind?
Answer: Result: recognises

Question: Does B19 bind?
Answer: Result: no recognition

Question: Does B20 bind?
Answer: Result: recognises

Question: Does B21 bind?
Answer: Result: recognises

Question: Does B22 bind?
Answer: Result: recognises

Question: Does B23 bind?
Answer: Result: no recognition

Question: Does B24 bind?
Answer: Result: no recognition

Question: Does B25 bind?
Answer: Result: no recognition

Question: Does B26 bind?
Answer: Result: no recognition

Question: Does B27 bind?
Answer: Result: recognises

Question: Does B28 bind?
Answer: Result: recognises

Question: Does B29 bind?
Answer: Result: recognises

Question: Does B30 bind?
Answer: Result: recognises

Question: Does B31 bind?
Answer: Result: recognises

Question: Does B32 bind?
Answer: Result: no recognition

Question: Does B33 bind?
Answer: Result: no recognition

Question: Does B34 bind?
Answer: Result: no recognition

Question: Does B35 bind?
Answer: Result: no recognition

Question: Does B36 bind?
Answer: Result: recognises

Question: Does B37 bind?
Answer: Result: recognises

Question: Does B38 bind?
Answer: Result: recognises

Question: Does B39 bind?
Answer: Result: no recognition

Question: Does B40 bind?
Answer: Result: recognises

Question: Does B41 bind?
Answer: Result: no recognition

Question: Does B42 bind?
Answer: Result: recognises

Question: Does B43 bind?
Answer: Result: recognises
